Source: the DeepSol protein solubility set

Test: soluble on expression in E. coli; label from the status in PepcDB or PDB records

Sequence | soluble on expression in E. coli
MANEKQYPMTKEGKEKLEQELEYLKTVKRKEVVERIKIARGFGDLSENSEYDAAKDEQAFVESRIQMLENMIRNAVIIEEDKENPDVVSLGKSVTFIELPDGEEETYTIVGSAEADPFEGKISNDSPIAKSLLGRRVGDEVTVQTPGGEMLVKIVAVK | soluble
ACTQPSDWVPPAKNDALVIALKKVIGGRLSDAFHIRDKLQRRDAIAAVKDDVIQQLAGRLEVEGWNLAELLKEFGELEYRTMRDALLDTKVRIDGRSLEAVRP | not soluble
MLTTLSCCCNMPVVKVNCWNNMKVQIKSITQWGGVLLLSFSSCYVNANKLIKPNILFIAVDDLKPLIRDYGTAKVQTPNIDKLASQSTVFTRAYSQYPVCGPSRMSILTGLRPESNGIMNLKDKIRDVNPSVITLPQFFKNNGYETAATGKIFDPRNTTSRSEEEVLSWSIPYQRPKHGLKGKTRLAVESIDEPDEKFVDGGILKRGKKLLKQMANKNKPFFLAVGFKKPHLPFVAPKKYYDLYSRESFDLASYQSAPEDADTTYLFHKNQELRGYKPTPIKGGEIKPYPKGKLSSAHQKELLHGYFASVSFIDSLVGELLEELEKTGQAENTVIVFWGDHGFHLGDHGLWGKHTTMEQANHVPLIIKIPGSKANRYAKPVELLDVFPSLTEAAGLSIPNNLQGTSLVSLVTGKLKSIDKVAISQYKRKGAYGYSMRTEQYRYTQWVTPSGKVVYRDLYDLINDPLETKNIINTPEGKLLEVELNKQLHTNSAGLKRLKLEHHHHHH | not soluble
MNRLERIIQLVSQKKKIDVNSLSEQLDVSKVTIRKDLDKLESKGLLRREHGYAVLNSGDDLNVRLSYNYNIKRRIAEKAAELVQDNDTIMIESGSTCALLAEVLCQTKRNIKVITNSCFIANYIRQYSSCQIILLGGYYQPNSEVTVGPLLKEMISLFHVNRVFVGTDGFNKDLGFMGKDMMRSEGVRYMADAAEEVVILTDSSKFSKTSLVHQLSLADVNRVITDQALDKQTQELLSASGLVLDFVSLEHHHHHH | not soluble
MGSDKIHHHHHHMIYMIIHKFIIHVLDKNSDVPILNDFEGKVNQEVDGFFQKAIKRIAKDEDLRKGVFKDYNDNLIKNCCEQIIYDESTFLKNSKEIASYLFDVMKINAALESCDLAICLYTIKDEKSVAILKLDYKKLYTHSIEFVDDKFNIQMVSNEIGIPETLRQKQGALISLSGINDEFHLRLLDKDAEKEGSESKFVTEFLNAKKIDDDKYKTKVFKNTAENWITNALSNDIKQAEDVRSILNYTLKEKHEVDINDFVDNSIKDDELKDSFKEHMEEKGLDESFSIDKKWVEKKLKKRSIKTDNGFDIKGNLTDFEDPMKYTVKQNQDGTIDIIIKNVTFYEEK | not soluble
MGSDKIHHHHHHMYAETDFIALSALQHYVFCPRQCALIHLEQVWSENLYTAEGREMHERADSAVTSYREGVKVTRSVPLRSAVLGVSGVADVVEWHRREGGFEPFPVEYKRGKPKKHDADKVQLCAQAMCLEEMRSCAIPSGALFYGQTMRRLDVVFDEVLRSKTVAAAAGVHGLFSLGVTPHPEFGPKCKLCSLVDECLPEVLERHGSAKRYVQKLYRELSGEEI | not soluble
MGSDKIHHHHHHMSDLLEWQDLAQLPVSIFKDYVTDAQDAEKPFIWTEVFLREINRSNQEIILHIWPMTKTVILGMLDRELPHLELAKKEIISRGYEPVVRNFGGLAVVADEGILNFSLVIPDVFERKLSISDGYLIMVDFIRSIFSDFYQPIEHFEVETSYCPGKFDLSINGKKFAGLAQRRIKNGIAVSIYLSVCGDQKGRSQMISDFYKIGLGDTGSPIAYPNVDPEIMANLSDLLDCPMTVEDVIDRMLISLKQVGFNDRLLMIRPDLVAEFNRFQAKSMANKGMVSRDE | not soluble
MSLRNMSIINSTPVRVIAIVGCDGSGKSTLTASLVNELAARMPTEHIYLGQSSGRIGEWISQLPVIGAPFGRYLRSKAAHVHEKPSTPPGNITALVIYLLSCWRAYKFRKMLCKSQQGFLLITDRYPQVEVPGFRFDGPQLAKTTGGNGWIKMLRQRELKLYQWMASYLPVLLIRLGIDEQTAFARKPDHQLAALQEKIAVTPQLTFNGAKILELDGRHPADEILQASLRAIHAALSEGHHHHHH | soluble
MLMSLAQCPGFLFAHREECTVEIKKIINPRYTESGAVDCDVFFDDRDQAVPYTATADDVAPTGQQIWQELQSGKWGEIAPFTVTPEMLEAAREARRQEIEAWRTEQEAKPFTFEWNGRTWNADASSVARLSPVVMLAKSVAAQTHMVWSDADNQQVKLSMPELEELAAAMVQAQVDRNDEIYRRQREMKEELSSLDDLASIRAFDVK | not soluble
MSLNVSHFFPETFVSLVKDMLTKTDGSTTKAIETLIGGKAEIEVFQQNNIDYDKLSPEEARLFQRDDDILFRTSSLKTGDDYLSYNYVYVKTNLLPPAIKQDLQEERLPIGKIIAELESRREIFSTGDCLGKHFTQLVPVSADRTYAFKKYQIISGRQCMFYVCELFDLEKICKLTAGEGHHHHHH | not soluble
MSTEIKTLKPQAVWEYFYDLTQIPRPTGQMDEVTKYVFDFGKRLGLETEQDEVGNVIIRKPATPGMENKPIVTLQSHLDMVPQKNSDIDHDFTKDPIDAYIDGEWVKARG | not soluble
ESPEIQVEEQSFNFGLIPEEKGSVGHSFKFRNSGTAPLLITRVMADCGCTTPTWPEEAIAPGEEAEIRVLFDPVGRSGAFVKRIRVFSNAQSSPLE | not soluble
METFRTLLAKAALGNGISSTAYDTAWVAKLGQLDDELSDLALNWLCERQLPDGSWGAEFPFCYEDRLLSTLAAMISLTSNKHRRRRAAQVEKGLLALKNLTSGAFEGPQLDIKDATVGFELIAPTLMAEAARLGLAICHEESILGELVGVREQKLRKLGGSKINKHITAAFSVELAGQDGVGMLDVDNLQETNGSVKYSPSASAYFALHVKPGDKRALAYISSIIQAGDGGAPAFYQAEIFEIVWSLWNLSRTDIDLSDPEIVRTYLPYLDHVEQHWVRGRGVGWTGNSTLEDCDTTSVAYDVLSKFGRSPDIGAVLQFEDADWFRTYFHEVGPSISTNVHVLGALKQAGYDKCHPRVRKVLEFIRSSKEPGRFCWRDKWHRSAYYTTAHLICAASNYDDALCSDAIGWILNTQRPDGSWGFFDGQATAEETAYCIQALAHWQRHSGTSLSAQISRAGGWLSQHCEPPYAPLWIAKTLYCSATVVKAAILSALRLVDESNQ | not soluble
MMQISSNGITRLKREEGERLKAYSDSRGIPTIGVGHTGKVDGNSVASGMTITAEKSSELLKEDLQWVEDAISSLVRVPLNQNQYDAMCSLIFNIGKSAFAGSTVLRQLNLKNYQAAADAFLLWKKAGKDPDILLPRRRRERALFLS | soluble
DIELTQSPASLSVATGEKVTIRCMTSTDIDDDMNWYQQKPGEPPKFLISEGNTLRPGVPSRFSSSGTGTDFVFTIENTLSEDVGDYYCLQSFNVPLTFGCGTKLEIK | soluble
MGSDKIHHHHHHMVKVVKFGGSSLANAAQYQKVIEILRADPERRIVVVSAPGKRFKDDVKVTDLLIKYANASGENVKVARQAVLDRYQEIADAYHVSDSDFEQINVHLIDLANLHHANKACRLAHFKAAGERLNAILMALVLKKFNVTARFVDPKQLGIKAHGDYNNAILDQHSYAQIEAVCSNLLDEAEYLVVPGFYAYNQNGEVCTFSRGGSDITGAILARGFQAQLYENFTDVDSIYSADPKIIAQPHPIREMTYREMRELAYAGFSVFHDEAIIPAIEAQVPIVIKNTDHPNLPGTVIEPEQNYASDLEITGVASSSRFAALYIHKYLLNREVGFTLKLLKILYRYDISYEHMPSGIDDLTIIFNQNQITDEILPSLLSDIREELHTDQLEWIDDYAILMVVGEGMRDKVGVVDRIVNALARKQIGIQMINQGASRISTMLGVHQNQVNQAVREIYREFFKNKGRAD | not soluble
MACFLARFQFISPDSPATKAVTLQIKRSGQDMYACITGHSYSAPVFTVECKLKPDAEWVRDCMASFKEQMEAEGFLLNEGTSESTLPAQPAKKADLTLHDISAFFHLPVKAAASCLGVSQTYLKILCRRLGIDRWPYRKVASVKKHM | not soluble
